Assay results taken from PMC3210382.

Molecular target: BoNT/A toxoid (formaldehyde-inactivated botulinum neurotoxin type A, 150 kDa) (UniProt P0DPI1 2-1296)
Test: […]

BoNT/A toxoid (formaldehyde-inactivated botulinum neurotoxin type A, 150 kDa), sequence (P0DPI1 2-1296): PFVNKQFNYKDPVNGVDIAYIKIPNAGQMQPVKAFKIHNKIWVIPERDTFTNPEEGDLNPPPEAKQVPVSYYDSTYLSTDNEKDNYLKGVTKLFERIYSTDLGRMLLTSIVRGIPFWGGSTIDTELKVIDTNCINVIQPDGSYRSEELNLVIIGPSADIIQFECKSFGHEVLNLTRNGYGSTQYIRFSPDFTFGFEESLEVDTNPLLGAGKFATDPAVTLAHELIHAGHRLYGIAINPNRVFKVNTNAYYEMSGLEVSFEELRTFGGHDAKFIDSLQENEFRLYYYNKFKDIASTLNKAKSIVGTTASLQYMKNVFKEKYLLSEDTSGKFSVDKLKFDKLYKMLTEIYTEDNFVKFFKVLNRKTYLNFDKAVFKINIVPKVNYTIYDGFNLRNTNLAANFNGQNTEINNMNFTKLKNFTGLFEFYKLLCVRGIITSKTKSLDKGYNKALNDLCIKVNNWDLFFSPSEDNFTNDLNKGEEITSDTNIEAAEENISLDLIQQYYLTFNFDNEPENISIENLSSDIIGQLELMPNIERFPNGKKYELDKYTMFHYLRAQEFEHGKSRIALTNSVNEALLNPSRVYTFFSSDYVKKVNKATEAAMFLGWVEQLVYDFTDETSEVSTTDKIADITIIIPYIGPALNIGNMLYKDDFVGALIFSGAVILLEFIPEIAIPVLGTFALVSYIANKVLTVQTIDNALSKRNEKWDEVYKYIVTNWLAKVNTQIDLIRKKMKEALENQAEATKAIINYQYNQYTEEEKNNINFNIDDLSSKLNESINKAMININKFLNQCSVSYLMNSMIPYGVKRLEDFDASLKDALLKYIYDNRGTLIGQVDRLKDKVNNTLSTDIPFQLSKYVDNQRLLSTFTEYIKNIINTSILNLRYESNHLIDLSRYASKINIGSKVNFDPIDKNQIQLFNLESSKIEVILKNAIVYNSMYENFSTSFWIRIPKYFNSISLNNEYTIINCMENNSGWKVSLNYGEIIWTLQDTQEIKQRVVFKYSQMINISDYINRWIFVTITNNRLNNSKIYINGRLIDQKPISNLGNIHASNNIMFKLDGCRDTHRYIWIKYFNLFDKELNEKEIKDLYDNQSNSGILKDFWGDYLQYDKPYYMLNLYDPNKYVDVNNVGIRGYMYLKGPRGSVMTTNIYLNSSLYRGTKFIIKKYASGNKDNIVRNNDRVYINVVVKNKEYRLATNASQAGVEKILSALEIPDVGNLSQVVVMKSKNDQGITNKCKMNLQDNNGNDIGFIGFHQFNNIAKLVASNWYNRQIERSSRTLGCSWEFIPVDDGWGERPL

B1: BoNT/A aptamer (76 nt) (ssDNA)
DNA: ATACCAGCTTATTCAATTGACATGACTGGGATTTTTGGCGAAATCGAAGGAAGCGGAGAGATAGTAAGTGCAATCT
For B1, the binding signal was ~3.8 signal-to-background ratio.
